B1: Aspartate aminotransferase, P00509 (parent)
chain: MFENITAAPADPILGLADLFRADERPGKINLGIGVYKDETGKTPVLTSVKKAEQYLLENETTKNYLGIDGIPEFGRCTQELLFGKGSALINDKRARTAQTPGGTGALRVAADFLAKNTSVKRVWVSNPSWPNHKSVFNSAGLEVREYAYYDAENHTLDFDALINSLNEAQAGDVVLFHGCCHNPTGIDPTLEQWQTLAQLSVEKGWLPLFDFAYQGFARGLEEDAEGLRAFAAMHKELIVASSYSKNFGLYNERVGACTLVAADSETVDRAFSQMKAAIRANYSNPPAHGASVVATILSNDALRAIWEQELTDMRQRIQRMRQLFVNTLQEKGANRDFSFIIKQNGMFSFSGLTKEQVLRLREEFGVYAVASGRVNVAGMTPDNMAPLCEAIVAVL

Values joined by “and” are separate entries in the source; they are usually repeats but may differ in a detail not shown here. Identical values can stand only once.

The data set covers variants of B1. Particulars: Escherichia coli (strain K12); pH 7.5; 25 °C; Urea; Fluorescence; Potassium phosphate 20 mM; reversible: Yes; structure 1AMQ; whole UniProt chain shown.

As for MFENATAAPADPILGLADLFRADERPGKINLGIGVYKDETGKTPVLTSVKKAEQYLLENETTKNYLGIDGIPEFGRCTQELLFGKGSALINDKRARTAQTPGGTGALRVAADFLAKNTSVKRVWVSNPSWPNHKSVFNSAGLEVREYAYYDAENHTLDFDALINSLNEAQAGDVVLFHGCCHNPTGIDPTLEQWQTLAQLSVEKGWLPLFDFAYQGFARGLEEDAEGLRAFAAMHKELIVASSYSKNFGLYNERVGACTLVAADSETVDRAFSQMKAAIRANYSNPPAHGASVVATILSNDALRAIWEQELTDMRQRIQRMRQLFVNTLQEKGANRDFSFIIKQNGMFSFSGLTKEQVLRLREEFGVYAVASGRVNVAGMTPDNMAPLCEAIVAVL [I5A], the “ddG of mutation (higher = less stable)” value was 4.9 kcal/mol and 5.1 kcal/mol; the “denaturant midpoint (higher = more stable)” value (“denaturant midpoint” for short) is 2.81 M and 2.74 M and 5.2 M. In the case of MFENITAAPAAPILGLADLFRADERPGKINLGIGVYKDETGKTPVLTSVKKAEQYLLENETTKNYLGIDGIPEFGRCTQELLFGKGSALINDKRARTAQTPGGTGALRVAADFLAKNTSVKRVWVSNPSWPNHKSVFNSAGLEVREYAYYDAENHTLDFDALINSLNEAQAGDVVLFHGCCHNPTGIDPTLEQWQTLAQLSVEKGWLPLFDFAYQGFARGLEEDAEGLRAFAAMHKELIVASSYSKNFGLYNERVGACTLVAADSETVDRAFSQMKAAIRANYSNPPAHGASVVATILSNDALRAIWEQELTDMRQRIQRMRQLFVNTLQEKGANRDFSFIIKQNGMFSFSGLTKEQVLRLREEFGVYAVASGRVNVAGMTPDNMAPLCEAIVAVL [D11A], the “ddG of mutation (higher = less stable)” value is 5.9 kcal/mol and 5.1 kcal/mol. MFENITAAPADPILGLADLFRADERPGKINLGIGVYKDETGKTPVLTSVKKAEQYLLENETTENYLGIDGIPEFGRCTQELLFGKGSALINDKRARTAQTPGGTGALRVAADFLAKNTSVKRVWVSNPSWPNHKSVFNSAGLEVREYAYYDAENHTLDFDALINSLNEAQAGDVVLFHGCCHNPTGIDPTLEQWQTLAQLSVEKGWLPLFDFAYQGFARGLEEDAEGLRAFAAMHKELIVASSYSKNFGLYNERVGACTLVAADSETVDRAFSQMKAAIRANYSNPPAHGASVVATILSNDALRAIWEQELTDMRQRIQRMRQLFVNTLQEKGANRDFSFIIKQNGMFSFSGLTKEQVLRLREEFGVYAVASGRVNVAGMTPDNMAPLCEAIVAVL [K63E]: the “ddG of mutation (higher = less stable)” value came to 4.5 kcal/mol; the “denaturant midpoint” value was 2.93 M and 3.9 M and 5.01 M.

Take MFENITAAPADPILGLADLFRADERPGKINLGIGVYKDETGKTPVLTSVKKAEQYLLENETTMNYLGIDGIPEFGRCTQELLFGKGSALINDKRARTAQTPGGTGALRVAADFLAKNTSVKRVWVSNPSWPNHKSVFNSAGLEVREYAYYDAENHTLDFDALINSLNEAQAGDVVLFHGCCHNPTGIDPTLEQWQTLAQLSVEKGWLPLFDFAYQGFARGLEEDAEGLRAFAAMHKELIVASSYSKNFGLYNERVGACTLVAADSETVDRAFSQMKAAIRANYSNPPAHGASVVATILSNDALRAIWEQELTDMRQRIQRMRQLFVNTLQEKGANRDFSFIIKQNGMFSFSGLTKEQVLRLREEFGVYAVASGRVNVAGMTPDNMAPLCEAIVAVL [K63M]: the “ddG of mutation (higher = less stable)” value is 5.4 kcal/mol and 4.7 kcal/mol; the “denaturant midpoint” value is 2.71 M and 2.81 M and 4.29 M. Consider MFANITAAPADPILGLADLFRADERPGKINLGIGVYKDETGKTPVLTSVKKAEQYLLENETTKNYLGIDGIPEFGRCTQELLFGKGSALINDKRARTAQTPGGTGALRVAADFLAKNTSVKRVWVSNPSWPNHKSVFNSAGLEVREYAYYDAENHTLDFDALINSLNEAQAGDVVLFHGCCHNPTGIDPTLEQWQTLAQLSVEKGWLPLFDFAYQGFARGLEEDAEGLRAFAAMHKELIVASSYSKNFGLYNERVGACTLVAADSETVDRAFSQMKAAIRANYSNPPAHGASVVATILSNDALRAIWEQELTDMRQRIQRMRQLFVNTLQEKGANRDFSFIIKQNGMFSFSGLTKEQVLRLREEFGVYAVASGRVNVAGMTPDNMAPLCEAIVAVL [E3A], for which the “ddG of mutation (higher = less stable)” value was 3.8 kcal/mol and 3 kcal/mol. In the case of MFENIAAAPADPILGLADLFRADERPGKINLGIGVYKDETGKTPVLTSVKKAEQYLLENETTKNYLGIDGIPEFGRCTQELLFGKGSALINDKRARTAQTPGGTGALRVAADFLAKNTSVKRVWVSNPSWPNHKSVFNSAGLEVREYAYYDAENHTLDFDALINSLNEAQAGDVVLFHGCCHNPTGIDPTLEQWQTLAQLSVEKGWLPLFDFAYQGFARGLEEDAEGLRAFAAMHKELIVASSYSKNFGLYNERVGACTLVAADSETVDRAFSQMKAAIRANYSNPPAHGASVVATILSNDALRAIWEQELTDMRQRIQRMRQLFVNTLQEKGANRDFSFIIKQNGMFSFSGLTKEQVLRLREEFGVYAVASGRVNVAGMTPDNMAPLCEAIVAVL [T6A], the “ddG of mutation (higher = less stable)” value is 1.3 kcal/mol; the “denaturant midpoint” value is 3.62 M and 4.77 M. As for MFENITAAPADPILGLADLFRADERPGKINLGIGVYKDETGKTPVLTSVKKAEQYLLENETTENYLGIDGIPEFGRCTQELLFGKGSALINDKRARTAQTPGGTGALRVAADFLAKNTSVKRVWVSNPSWPNHKSVFNSAGLEVREYAYYDAENHTLDFDALINSLNEAQAGDVVLFHGCCHNPTGIDPTLEQWQTLAQLSVEKGWLPLFDFAYQGFARGLEEDAEGLRAFAAMHKELIVASSYSKNFGLYNKRVGACTLVAADSETVDRAFSQMKAAIRANYSNPPAHGASVVATILSNDALRAIWEQELTDMRQRIQRMRQLFVNTLQEKGANRDFSFIIKQNGMFSFSGLTKEQVLRLREEFGVYAVASGRVNVAGMTPDNMAPLCEAIVAVL [K63E E253K], the “ddG of mutation (higher = less stable)” value was 6.7 kcal/mol and 6.5 kcal/mol.

As for MAENITAAPADPILGLADLFRADERPGKINLGIGVYKDETGKTPVLTSVKKAEQYLLENETTKNYLGIDGIPEFGRCTQELLFGKGSALINDKRARTAQTPGGTGALRVAADFLAKNTSVKRVWVSNPSWPNHKSVFNSAGLEVREYAYYDAENHTLDFDALINSLNEAQAGDVVLFHGCCHNPTGIDPTLEQWQTLAQLSVEKGWLPLFDFAYQGFARGLEEDAEGLRAFAAMHKELIVASSYSKNFGLYNERVGACTLVAADSETVDRAFSQMKAAIRANYSNPPAHGASVVATILSNDALRAIWEQELTDMRQRIQRMRQLFVNTLQEKGANRDFSFIIKQNGMFSFSGLTKEQVLRLREEFGVYAVASGRVNVAGMTPDNMAPLCEAIVAVL [F2A], the “ddG of mutation (higher = less stable)” value was 7.3 kcal/mol and 7.4 kcal/mol; the “denaturant midpoint” value is 2.28 M and 4.26 M and 5.09 M.
